Measured values taken from publication PMC6230994 (2018).

Biological target: His6:ΔIBB-IMPORTIN-α2 (Arabidopsis thaliana (Mouse-ear cress), UniProt F4JL11)
Assay: analytical SEC

Chain of His6:ΔIBB-IMPORTIN-α2 (F4JL11 75-535, stated change not applied): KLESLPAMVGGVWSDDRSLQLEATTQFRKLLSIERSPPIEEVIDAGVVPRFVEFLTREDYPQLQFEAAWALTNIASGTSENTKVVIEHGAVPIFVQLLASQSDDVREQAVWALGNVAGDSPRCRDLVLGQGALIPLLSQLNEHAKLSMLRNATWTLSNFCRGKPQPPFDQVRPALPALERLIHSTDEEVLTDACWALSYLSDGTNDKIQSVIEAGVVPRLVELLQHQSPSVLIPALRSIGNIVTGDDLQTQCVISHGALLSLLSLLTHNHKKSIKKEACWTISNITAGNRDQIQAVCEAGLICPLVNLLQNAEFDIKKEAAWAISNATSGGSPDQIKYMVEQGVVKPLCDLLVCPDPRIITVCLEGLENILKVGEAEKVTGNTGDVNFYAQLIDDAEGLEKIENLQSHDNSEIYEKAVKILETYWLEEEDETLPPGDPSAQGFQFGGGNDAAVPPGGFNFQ

B1: His6:SUMO:SAP (protein)
chain: MANKLKVDELRLKLAERGLSTTGVKAVLVERLEEAIAEDTKKEESKSKRKRNSSNDTYESNKLIAIGEFRGMIVKELREEAIKRGLDTTGTKKDLLERLCNDANN
binding result: no binding
